Measured values from patent publication US6991908 (Takeda / Millennium, dated 2006).
Each block holds one binder with its values, some of them ahead of it. Positions of bridges follow the written chain, without caps; N, C: chain ends. No end group written: not given here.

How the values were obtained:
[1] = molecular target: T1, human SLC-1 (human); assay: radioligand competition against [125I]-labeled MCH(4-19) on human SLC-1-expression CHO cell membrane fraction (2.5 µg/ml), filtration, γ-counter
T1 construct: also called hSLC-1; human SLC-1(S)

[2] = molecular target: rat SLC-1 (rat, UniProt P97639 1-353); assay: cell-based or functional assay

- IC50 [1]: 0.2 nM
B1: melanin concentrating hormone (MCH), rat MCH (ligand)
peptide: DFDMLRCMLGRVYRPCWQV
modifications: disulfide 7-16
notes: also called synthetic MCH; synthetic rat MCH

- agonist activity, GTPγS binding assay (fold decrease against MCH) [2]: ~10 times
Binder: RCMLGRVYRPCWQV (disulfide 2-11) [Des-[Asp1, Phe2, Asp3, Met4, Leu5]-MCH (MCH(6-19))]

- agonist activity, GTPγS binding assay (fold decrease against MCH) [2]: ~200 times
Binder: CMLGRVYRPCWQV (disulfide 1-10) [Des-[Asp1, Phe2, Asp3, Met4, Leu5, Arg6]-MCH (MCH(7-19))]
